Target: T1, ENO1 (bought, ATGen #ATGP0404) (UniProt P06733 1-434)
T1 construct: ENO1 (α-enolase), bought protein, ATGen #ATGP0404; also called α-enolase; source: bought: ATGen (#ATGP0404)
Assay: SPR; ENO1 immobilised directly on CM5 chip (8171 RU, 10 mM sodium acetate pH 5.0); GRN A 3.5-112.0 μM in HBS-EP (10 mM HEPES, 150 mM NaCl, 3 mM EDTA, 0.05% P20) at 30 μL/min; BIACORE T200; KD = Koff/Kon
Details: both partners purified

T1 sequence (P06733 whole entry): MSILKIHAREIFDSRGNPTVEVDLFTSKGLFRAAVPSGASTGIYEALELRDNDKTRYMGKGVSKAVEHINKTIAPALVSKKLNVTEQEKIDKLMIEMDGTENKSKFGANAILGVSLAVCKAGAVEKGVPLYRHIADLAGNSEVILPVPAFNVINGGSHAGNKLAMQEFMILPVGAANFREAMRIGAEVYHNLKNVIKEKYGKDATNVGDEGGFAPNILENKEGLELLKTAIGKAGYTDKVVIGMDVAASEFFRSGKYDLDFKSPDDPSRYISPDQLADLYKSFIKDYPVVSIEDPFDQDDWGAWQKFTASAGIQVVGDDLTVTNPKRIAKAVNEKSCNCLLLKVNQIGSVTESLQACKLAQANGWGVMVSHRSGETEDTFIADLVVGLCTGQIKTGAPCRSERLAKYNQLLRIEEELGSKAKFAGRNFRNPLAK

B1: Granulin A (His-GRN A) (peptide, UniProt P28799 281-336, looked up)
chain: DVKCDMEVSCPDGYTCCRLQSGAWGCCPFTQAVCCEDHIHCCPAGFTCDTQKGTCE
notes: granulin A (GRN A), a peptide of about 6 kDa with 12 cysteine residues, derived from proteolysis of progranulin (PGRN); The source and limits of the His-tagged GRN A are not described; The SPR methods call the analyte only 'GRN A'
Kd: 56 µM
